{
  "source": "the DeepSol protein solubility set",
  "data": [
    {"assay": "soluble on expression in E. coli; label from the status in PepcDB or PDB records", "values": [
      {"sequence": "MITLTLFGQETSSSALIFAYCNAATGSNTMSTDCRRRLNKDLYLLIPEHPMNPKQFERWKSQLSQLSPQQLRALQGEIDRSLHQNESALLTEEERDAIAHLFS", "soluble on expression in E. coli": "not soluble"},
      {"sequence": "MITMLERVPTGIPGFDELCSGGLLRDRSYLVSGPSGSGKTIFAMQYLVNGIEKYNEPGVFVATEERPQHLREHFLTFGWDLEKYEDENMLAIVDATSTKIGLPSDERYIDVRPFDTRSLLDQIITIQDEIGARRAVVDSTTSIGFTISDPAKFRVELLKISTTMEILGLTSILTCEVVEGGGDKISRFGVENFVVEGTIVLYYTRIENTRVRSIEIFKMRGTNHSSKIHPFEITENGIVVYSKEEVFA", "soluble on expression in E. coli": "not soluble"},
      {"sequence": "MITVFGLKSKLAPRREKLAEVIYNSLHLGLDIPKGKHAIRFLCLEKEDFYYPFDRSDDYTVIEINLMAGRMEGTKKRLIKMLFSELEYKLGIRAHDVEITIKEQPAHCWGFRGMTGDEARDLDYDIYV", "soluble on expression in E. coli": "soluble"},
      {"sequence": "MITWADALGFRLVVVDSLGSADQEVVEAEDGEPFERHEMRRLTRPLWTRRKARKLSQGDLALLLGVSRASVQRWEDADKFPRPIALIAWAGRLECSVELDRVTSENDRPQPGREEA", "soluble on expression in E. coli": "not soluble"},
      {"sequence": "MIVDFYFDFLSPFSYLANQRLSKLAQDYGLTIRYNAIDLARVKIAIGNVGPSNRDLKVKLDYLKVDLQRWAQLYGIPLVFPANYNSRRMNIGFYYSGAEAQAAAYVNVVFNAVWGEGIAPDLESLPALVSEKLGWDRSAFEHFLSSNAATERYDEQTHAAIERKVFGVPTMFLGDEMWWGNDRLFMLESAMGRLCRQNADLSS", "soluble on expression in E. coli": "soluble"},
      {"sequence": "MIVILDNGGQYVHRIHRSLKYIGVSSKIVPNTTPLEEIESNKEVKGIILSGGPDIEKAKNCIDIALNAKLPILGICLGHQLIALAYGGEVGRAEAEEYALTKVYVDKENDLFKNVPREFNAWASHKDEVKKVPEGFEILAHSDICQVEAMKHKTKPIYGVQFHPEVAHTEYGNEILKNFCKVCGYKFE", "soluble on expression in E. coli": "soluble"},
      {"sequence": "MIVLVTGATAGFGECITRRFIQQGHKVIATGRRQERLQELKDELGDNLYIAQLDVRNRAAIEEMLASLPAEWCNIDILVNNAGLALGMEPAHKASVEDWETMIDTNNKGLVYMTRAVLPGMVERNHGHIINIGSTAGSWPYAGGNVYGATKAFVRQFSLNLRTDLHGTAVRVTDIEPGLVGGTEFSNVRFKGDDGKAEKTYQNTVALTPEDVSEAVWWVSTLPAHVNINTLEMMPVTQSYAGLNVHRQ", "soluble on expression in E. coli": "soluble"},
      {"sequence": "MIVRGGGDLATGVIQKLWHVGFKILVLETECPLAIRRTVSVCDAIFQKEQRVEDLVAVRITSLKDCAKCWQQNKLPVFVDQTASAIQQLKPLIVIDAILAKKNLGTHRGMAPITIALGPGFSAPQDVDVVIETMRGHRLGRLYFEGTALPNTGIPGEIGGKSAERVVHAPASGQVTHLKNIGDLVLKGEALFLIDQVPVYSPLTGTLRGLISEKVTCYQGLKCADVDPRPVEKVDCLTISDKARALGGAVLEAIFMIGRRKNVL", "soluble on expression in E. coli": "not soluble"},
      {"sequence": "MIYLFTGNMGTGKTSRVVSMILNNEDGLFKMKLEDGTEVDRPLYFCHIDGLDKRQFKAHELTEEQIMSAPLRDVIPEGAVLIVDEAHYTYPVRAAGRPVPPYIQELTELRHHGHTVILMTQHPSQLDIFVRNLVSKHVHLERKAIGMKQYYWYKCVTSLDNPAGVSGVEVASWKPPKEAFKYYKSASQHQ", "soluble on expression in E. coli": "not soluble"},
      {"sequence": "MIYPDETMLYAPVEWHDCSEGYTDIRYEKSTDGIAKITINRPQVRNAFRPLTVKEMIQALADARYDDNVGVIILTGEGDKAFCAGGDQKVRGDYGGYQDDSGVHHLNVLDFQRQIRTCPKPVVAMVAGYSIGGGHVLHMMCDLTIAAENAIFGQTGPKVGSFDGGWGASYMARIVGQKKAREIWFLCRQYDAQQALDMGLVNTVVPLADLEKETVRWCREMLQNSPMALRCLKAALNADCDGQAGLQELAGNATMLFYMTEEGQEGRNAFNQKRQPDFSKFKRNP", "soluble on expression in E. coli": "not soluble"},
      {"sequence": "MKAAHIIDEARLGIMLNDLRLPTIKTLWPQFAEQADKEGWPAARFLSAIAEHELAERDRRRVERHLAEAHLPPGKTLDSFAFDAVPMVSKAQVMAMTAGDSWLAKGANILLFGPPGGGKSHLAAAIGLALIENGWRVLFTRTTDLVQKLQVARRELQLESAIAKLDKFDLLILDLEHHHHHH", "soluble on expression in E. coli": "not soluble"},
      {"sequence": "MKAFISENVRGIYAFDENGNLIEKRYFTDKPEKVLDQLLKGEITKDLEELLNSLKEKGYDEFVFEHPELSRRAKELGFSATTEFPNIAGERLRSNPEEFLGENWFEEYYKVGVALTRMRIQEQSGARDKMVIQAIEALDDVDKVINLLVARLREWYSLHFPELDELLPKHPQYVAFVKTVGHRDNINEEVLRELGLSEEKIKKILEAKEKTMGAWMDQTDIEVVRQLAEEIDRLYQLRKKLEDYIDRAMDDVAPNLKALVGAKLAARLISLAGGLRELAMMPSSTIQVLGAEKALFRHLRTGAKPPKHGVIYQYPAINRSPWWQRGKIARALAGKLAIAARVDYFSGEYIAEELKKELEARIREIKEKYPKPPKRKREERKGKKPWKKDKKKKKKKEKPRRRAAALEHHHHHH", "soluble on expression in E. coli": "not soluble"},
      {"sequence": "MKAHVLFSGGKDSSLSAIILHNLGYEIQLVTVNFGVLDSYLHAEETAKIIGYSHKVELIDKELIEKSVDMILKDGYPGNGIQFVHKQVLEIISEKYDVIADGTRRDDRVPRLDHSELQSLEMRKNIQYVTPLMGFGHKTLRNLVNNYFIISEKESEELLKSDYETEIRELIRQRGIDPLEYFPKHIQSRVIGLKR", "soluble on expression in E. coli": "not soluble"},
      {"sequence": "MKALCLLLLPVLGLLVSSKTLCSMEEAINERIQEVAGSLIFRAISSIGLECQSVTSRGDLATCPRGFAVTGCTCGSACGSWDVRAETTCHCQCAGMDWTGARCCRVQPLEHHHHHH", "soluble on expression in E. coli": "not soluble"},
      {"sequence": "MKASVRWVECPRDAWQGFSRFIPTEEKVAFLNELLEAGFAHLDLTSFVSPKWVPQMQDAEEVLKALPPPNGRTYLAIVANEKGLERALAAPNLTHVGYPFSLSETFQQRNTNRSIEASWPLVGAMVERTEGRLGLVVYLSMAFGNPYGDPWSVEAVLEALARLKEMGVREIALADTYGVAEPERIHEVLKAAVARFGPEGLGAHLHARPEGALAKVEAVLAAGVTWLEGALAGVGGCPFAGDELVGNLPTEVVLPHLEKRGLATGVDLSRLPLLAEEAARLKALYA", "soluble on expression in E. coli": "soluble"},
      {"sequence": "MKAVYPGSFDPITLGHVDIIKRALSIFDELVVLVTENPRKKCMFTLEERKKLIEEVLSDLDGVKVDVHHGLLVDYLKKHGIKVLVRGLRAVTDYEYELQMALANKKLYSDLETVFLIASEKFSFISSSLVKEVALYGGDVTEWVPPEVARALNEKLKEGKR", "soluble on expression in E. coli": "not soluble"},
      {"sequence": "MKCSWREGNKIQLLENGEQYYPAVFKAIGEAQERIILETFIWFEDNVGKQLHAALLAAAQRGVKAEVLLDGYGSPDLSDEFVNELTAAGVVFRYYDPRPRLFGMRTNVFRRMHRKIVVIDARIAFIGGLNYSAEHMSSYGPEAKQDYAVRLEGPIVEDILQFELENLPGQSAARRWWRRHHKAEENRQPGEAQVLLVWRDNEEHRDDIERHYLKMLTQAQREVIIANAYFFPGYRFLHALRKAARRGVRIKLIIQGEPDMPIVRVGARLLYNYLVKGGVQVFEYRRRPLHGKVALMDDHWATVGSSNLDPLSLSLNLEANVIIHDRHFNQTLRDNLNGIIAADCQQVDETMLPKRTWWNLTKSVLAFHFLRHFPALVGWLPAHTPRLTQVDPPAQPTMETQDRVETENTGVNP", "soluble on expression in E. coli": "not soluble"},
      {"sequence": "MKDLIIIGAGQAGLTMGYYLKQEGYNFLLLEAGKRVGDSWRNRYDSLQLFTPRSYSSLPGMALIGEKNEFPYKDEIATYLEEYARHFQLPVQLQTEVLKIKKEKEIFELHTPTEILQTKKVIIASGAFQQPFIPSVSANLSSHIFQIHSSQYKSPSQIPKGKVLVVGGGNSGMQIAVELAKTHEVTVSISHPLTFLPLQLFGKSIFNLLEKVGLLYAEINTKRGRWFQKRKDPIFGFEGKKLIRNGAIKLQEKVVSASRNNIMFQNGDTYSAESIIWSTGFVQNYNWIEIEQAVNEKGFPNHIKGISPVKGLYYIGLPWQSQRGSALICGVGKDAEYVLSEIKKIDQLEHHHHHH", "soluble on expression in E. coli": "soluble"},
      {"sequence": "MKDNERRILLGRVVGGFGLRGEIKIESWTEPRDAIFRYQPWLLRSPTGTESMLNGARGYETGKRLIATFPGINDRNGVEAICGTEIYVPRSALPPPHPDEYYWVDLEGLQVHTLEGVVLGSVSHLFSNGANDVIVIHGERERLIPFVQPDYVKSVDFEAERIVVDWDPEFLEHHHHHH", "soluble on expression in E. coli": "soluble"},
      {"sequence": "MKDPRIEKLAYNLINYSIRLQKGEKVLIENFGLQKELVTALVKEAYAAGGFPFVSLKDHQVDRSLLMGATEEHFEQIAAYEASVMKDMDAYIGLRSGDNINEQADVPSERMKVHGQTVGKKVHRDIRVPKTRWVVLRYPNASMAQLAKMSTEAFEDFYFEVCNLDYGKMDKAMDSLVTLMNKTDKVRLTGPGTDLTFSIKDIPAIKCSGHLNIPDGEVYSAPVRDSVNGTVSYNTPSPYNGYTFENVQLKFENGQIVEATANDSERINKIFDTDEGARYVGEFAIGVNPYILHPMGDILFDEKIDGSFHFTPGQAYDDAWNGNNSNIHWDLVCIQRPEYGGGEIYFDDVLIRKDGRFVVPELEALNPENLK", "soluble on expression in E. coli": "not soluble"},
      {"sequence": "MKDREIFAGLSTTVPFVLRLDGRSFHRFSKDRYKKPYDKVFSDAMVKTARALVTDSGLSPSFAYTFSDEISLYVPAPVFDCRVEKLASVSAAFAASAFTLYAGASEPLAFDARVIPIEEGLFPAYLSWRQAEAWRNHMNGYAQKILQDEGVSPTNAQKQLDGMNAAALHEFAFSRGVNLALTPAWERRGICIYRDVVMRDGYNPIKDEKVSVERTIAVIDEDVPLFKSPEGTAWVLSKIRLEHHHHHH", "soluble on expression in E. coli": "not soluble"},
      {"sequence": "MKDRELLAKSITTKDAVSDGRESPSLLSDKLSRLPWSTLYASVFCAGVLLLPFSGQAVEPPVAAKASENKNQLKTLQQDIAEKEKSVQQQKKQRSSLLDQLKQQENTISQTSRSLRETQAALAELSKDIASLTTSIEKLQNQQSQQQSILSKQLAAAFKQGKHSSLQLILSGEESQRSERILAYFSYLNEARQKAIEELKQTRTTLSAEKKMLEQKQNQHKALLDEQKAQQQKLEQARIARQKTLTSLEASLEKDQQSLAELKLNESRLRDQIAKAEREAKARAEREAKEAARVREQVKVKEQQAKKTGSSYKPSESERSLMARTGGLGRPGGQALWPVRGNVSHRFGEPLQGELRWKGMVITAPEGSEVKAIADGRVLLADWLQGYGLVVVIEHGKGDMSLYGYNQSALVNVGAQVKAGQPIALVGTSGGQGEPSLYFEIRRQGQAVNPQPWLGR", "soluble on expression in E. coli": "not soluble"},
      {"sequence": "MKDTLGFEHADRSLYYRFRNSLSSNLHLTHFDIETKLEVAKKFNLILNDQFVKDLNSTMNLIFEPNGCLASYTWKTDFLDYTLNPMELIIPYQSVIPSKTVPYRKRRMNDLEDLRKIKECSKRAFISNSDQSEVPSTSMLNSMKEMITEAVETSNKKLIEELKTSNEALVAQVANFKSKHIEQSSGKPGMRAYLEGLKGFLHHLNMPELADIKVRLNTLEKDLGDTDQPIPVQSIHSVLDIGLKLIGG", "soluble on expression in E. coli": "not soluble"},
      {"sequence": "MKEALEAALREILGPGEVVALRRLPGGASKEAWAVDYRTGEALHPLFLRRAGGGVIYSKTLALAEEFRLLQVAWAHGVKVPEPLHYFPDLEGREAFLMRRLEGETIGARVVRRPELARARETLPQAMAEELAKIHALSPDEVPFLQPPSLPSWRPALKKACRDLNALGKPHPALKWGMRWLLTHPPRELPPVVVHGDFRVGNLLVNGEGLVAVLDWEFAHLGDPREDLAWPLVRAWRFGEDGKRLGGVGEVGPFLERYNALTGRDIAEEELFWWEVLGNVRWGLGALKQARRHLRGEERSVELAVLGRLASEMEYEVLHLLERYG", "soluble on expression in E. coli": "soluble"}
    ]}
  ]
}
